B1: Escherichia coli polynucleotide phosphorylase core (PNPase ΔKHΔS1, lacking the C-terminal S1 and KH domains) (domain or fragment, E. coli)
chain: MLNPIVRKFQYGQHTVTLETGMMARQATAAVMVSMDDTAVFVTVVGQKKAKPGQDFFPLTVNYQERTYAAGRIPGSFFRREGRPSEGETLIARLIDRPIRPLFPEGFVNEVQVIATVVSVNPQVNPDIVAMIGASAALSLSGIPFNGPIGAARVGYINDQYVLNPTQDELKESKLDLVVAGTEAAVLMVESEAQLLSEDQMLGAVVFGHEQQQVVIQNINELVKEAGKPRWDWQPEPVNEALNARVAALAEARLSDAYRITDKQERYAQVDVIKSETIATLLAEDETLDENELGEILHAIEKNVVRSRVLAGEPRIDGREKDMIRGLDVRTGVLPRTHGSALFTRGETQALVTATLGTARDAQVLDELMGERTDTFLFHYNFPPYSVGETGMVGSPKRREIGHGRLAKRGVLAVMPDMDKFPYTVRVVSEITESNGSSSMASVCGASLALMDAGVPIKAAVAGIAMGLVKEGDNYVVLSDILGDEDHLGDMDFKVAGSRDGISALQMDIKIEGITKEIMQVALNQAKGARLHILGVMEQAINAPRGDIS
notes: Expression vector from George Mackie; No tag is mentioned; also called PNPase core; PNPase ΔKΔH1; source: E. coli BL21 (DE3), auto-induction, purified (ammonium sulphate, Q-Sepharose, mono-Q)
B2: RNase E recognition micro-domain (residues 1021-1061) (peptide, UniProt P21513 1021-1061, looked up)
peptide: EAPRHSDWQRPTFAFEGKGAAGGHTATHHASAAPARPQPVE
notes: also called RNase E micro-domain; source: synthetic peptide (Clonestar Biotech Ltd), desalted on PD10

The target of series [1] is B2. Nature of the series: ITC; MicroCal VP-ITC, 25 °C; 200 uM PNPase core injected into 10 uM RNase E micro-domain in the cell; 10 mM Tris pH 7.5, 150 mM NaCl, 1 mM MgCl2; single binding-site model. Particulars: both partners purified. On the technique in general: In ITC the heat of successive injections is recorded.
Series [2] deals with the molecule itself. In words: crystal structure; co-crystals of 165 uM PNPase core mixed with 246 uM RNase E micro-domain (1021-1061), with or without O2'-methyl RNA, Mn2+ or tungstate; four crystal forms; hanging drop, 20 °C.
Series [3] addresses B1. Nature of the series: ITC; MicroCal VP-ITC, 25 °C; 200 uM PNPase core injected into 10 uM RNase E micro-domain in the cell; 10 mM Tris pH 7.5, 150 mM NaCl, 1 mM MgCl2; single binding-site model. The settings on record: both partners purified.

The values that follow come from article PMC2723993, “Crystal Structure of Escherichia coli Polynucleotide Phosphorylase Core Bound to RNase E, RNA and Manganese: Implications for Catalytic Mechanism and RNA Degradosome Assembly” (Journal of Molecular Biology, 2009).

Consider B1, for which the dH in series [1] is -21.5 ± 0.52 kcal/mol. Besides, the figures for the “stoichiometry N” value in series [1] and in series [2] were 1.02 ± 0.02 and 3, respectively.
Take B2: in series [3], the Ka was determined as 956000 M⁻¹ and the equilibrium dissociation constant (Kd) is about 900 nM.

Broadly, the stoichiometry N is the number of molecules, sites or subunits per partner or assembly. One may read the Kd as a measure of binding affinity in units of concentration. Higher therefore signals a looser complex.
